Measurements reported in US20200179511A1 (Novartis, published 2020).

What was measured:
[1] = target: T1, human BCMA (B-cell maturation antigen) (human, UniProt Q02223 1-184); test: cell-based or functional assay
T1 sequence (looked up): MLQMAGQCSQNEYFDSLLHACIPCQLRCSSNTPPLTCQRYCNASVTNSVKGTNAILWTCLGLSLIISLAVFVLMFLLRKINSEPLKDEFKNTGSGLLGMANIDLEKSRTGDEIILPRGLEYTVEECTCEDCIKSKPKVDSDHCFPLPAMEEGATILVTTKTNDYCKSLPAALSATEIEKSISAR

[2] = target: T1, human BCMA (B-cell maturation antigen); test: cell-based or functional assay; remark: listed apart in the source

B1: BCMA×CD3 bispecific antibody EE11 (bispecific antibody)
chain 1: not shown
chain 2: EVQLVESGGGLVQPGGSLKLSCAASGFTFNTYAMNWVRQASGKGLEWVGRIRSKYNNYATYYADSVKDRFTISRDDSKSTLYLQMNSLKTEDTAVYYCVRHGNFGNSYVSWFAYWGQGTLVTVSSGGGGSGGGGSGGGGSGGGGSQAVVTQEPSLTVSPGGTVTLTCRSSTGAVTTSNYANWVQQKPGQAPRGLIGGTNKRAPWTPARFSGSLLGDKAALTLSGAQPEDEAEYFCALWYSNLWVFGGGTKLTVLGGGGSDKTHTCPPCPAPELLGGPSVFLFPPKPKDTLMISRTPEVTCVVVAVSHEDPEVKFNWYVDGVEVHNAKTKPREEQYNSTYRVVSVLTVLHQDWLNGKEYKCKVSNKALAAPIEKTISKAKGQPREPQVCTLPPSRDELTKNQVSLSCAVKGFYPSDIAVEWESNGQPENNYKTTPPVLDSDGSFFLVSKLTVDKSRWQQGNVFSCSVMHEALHNHYTQKSLSLSPGK
fold enhancement of RTCC EC50 upon GSI treatment [1]: ≥ 10 fold

B2: BCMA×CD3 bispecific antibody EM90 (bispecific antibody)
light: QAVVTQEPSLTVSPGGTVTLTCGSSTGAVTTSNYANWVQEKPGQAFRGLIGGTNKRAPGTPARFSGSLLGGKAALTLSGAQPEDEAEYYCALWYSNLWVFGGGTKLTVLGQPKAAPSVTLFPPSSEELQANKATLVCLISDFYPGAVTVAWKADSSPVKAGVETTTPSKQSNNKYAASSYLSLTPEQWKSHRSYSCQVTHEGSTVEKTVAPTECS
heavy 1: not shown
heavy 2: EVQLVESGGGLVKPGGSLRLSCAASGFTFSNSGMIWVRQAPGKGLEWVGHIRSKTDGGTTDYAAPVKGRFTISRDDSKNTLYLQMNSLKTEDTAVYYCTTGGSGSFDYWGQGTLVTVSSASTKGPSVFPLAPSSKSTSGGTAALGCLVKDYFPEPVTVSWNSGALTSGVHTFPAVLQSSGLYSLSSVVTVPSSSLGTQTYICNVNHKPSNTKVDKRVEPKSCDKTHTCPPCPAPEAAGGPSVFLFPPKPKDTLMISRTPEVTCVVVDVSHEDPEVKFNWYVDGVEVHNAKTKPREEQYNSTYRVVSVLTVLHQDWLNGKEYKCKVSNKALPAPIEKTISKAKGQPREPQVCTLPPSREEMTKNQVSLSCAVKGFYPSDIAVEWESNGQPENNYKTTPPVLDSDGSFFLVSKLTVDKSRWQQGNVFSCSVMHEALHNHYTQKSLSLSPGK
fold enhancement of RTCC EC50 upon GSI treatment [1]: > 40 fold

B3: BCMA×CD3 bispecific antibody BU76 (bispecific antibody, human IgG1, kappa, N297A)
heavy: QIQLVQSGPELKKPGETVKISCKASGYTFTDYSINWVKRAPGKGLKWMGWINTETREPAYAYDFRGRFAFSLETSASTAYLQINNLKYEDTATYFCALDYSYAMDYWGQGTSVTVSSASTKGPSVFPLAPSSKSTSGGTAALGCLVKDYFPEPVTVSWNSGALTSGVHTFPAVLQSSGLYSLSSVVTVPSSSLGTQTYICNVNHKPSNTKVDKRVEPKSCDKTHTCPPCPAPELLGGPSVFLFPPKPKDTLMISRTPEVTCVVVDVSHEDPEVKFNWYVDGVEVHNAKTKPREEQYASTYRVVSVLTVLHQDWLNGKEYKCKVSNKALPAPIEKTISKAKGQPREPQVCTLPPSREEMTKNQVSLSCAVKGFYPSDIAVEWESNGQPENNYKTTPPVLDSDGSFFLVSKLTVDKSRWQQGNVFSCSVMHEALHNHYTQKSLSLSPGK
light: DIVLTQSPASLAMSLGKRATISCRASESVSVIGAHLIHWYQQKPGQPPKLLIYLASNLETGVPARFSGSGSGTDFTLTIDPVEEDDVAIYSCLQSRIFPRTFGGGTKLEIKRTVAAPSVFIFPPSDEQLKSGTASVVCLLNNFYPREAKVQWKVDNALQSGNSQESVTEQDSKDSTYSLSSTLTLSKADYEKHKVYACEVTHQGLSSPVTKSFNRGEC
chain: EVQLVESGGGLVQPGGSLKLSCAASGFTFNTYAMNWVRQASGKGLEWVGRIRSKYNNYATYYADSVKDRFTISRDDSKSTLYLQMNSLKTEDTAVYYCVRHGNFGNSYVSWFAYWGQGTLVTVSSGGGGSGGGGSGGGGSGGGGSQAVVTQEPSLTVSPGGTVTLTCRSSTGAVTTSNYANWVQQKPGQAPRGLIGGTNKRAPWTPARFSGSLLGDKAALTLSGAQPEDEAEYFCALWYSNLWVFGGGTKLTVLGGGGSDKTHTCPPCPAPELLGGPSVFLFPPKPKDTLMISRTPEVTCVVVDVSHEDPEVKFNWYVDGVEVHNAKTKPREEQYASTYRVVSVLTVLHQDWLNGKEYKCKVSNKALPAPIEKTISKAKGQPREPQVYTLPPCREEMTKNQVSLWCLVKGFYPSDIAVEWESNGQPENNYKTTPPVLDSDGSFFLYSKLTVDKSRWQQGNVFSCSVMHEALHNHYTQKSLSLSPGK
fold enhancement of RTCC EC50 upon GSI treatment [1]: > 100 fold

B4: Pfizer_CD3_H2B4_RRRR-Pfizer_BCMA_comboC29_EEEE hIgG2a_ASS (bispecific antibody)
heavy 1: EVQLLESGGGLVQPGGSLRLSCAASGFTFSSYPMSWVRQAPGKGLEWVSAIGGSGGSLPYADSVKGRFTISRDNSKNTLYLQMNSLRAEDTAVYYCARYWPMDIWGQGTLVTVSSASTKGPSVFPLAPCSRSTSESTAALGCLVKDYFPEPVTVSWNSGALTSGVHTFPAVLQSSGLYSLSSVVTVPSSNFGTQTYTCNVDHKPSNTKVDKTVERKCEVECPECPAPPVAGPSVFLFPPKPKDTLMISRTPEVTCVVVAVSHEDPEVQFNWYVDGVEVHNAKTKPREEQFNSTFRVVSVLTVVHQDWLNGKEYKCKVSNKGLPSSIEKTISKTKGQPREPQVYTLPPSREEMTKNQVSLTCEVKGFYPSDISVEWESNGQPENNYKTTPPMLDSDGSFFLYSKLTVDKSRWQQGNVFSCSVMHEALHNHYTQKSLSLSPGK
light 1: EIVLTQSPGTLSLSPGERATLSCRASQSVSSSYLAWYQQKPGQAPRLLMYDASIRATGIPDRFSGSGSGTDFTLTISRLEPEDFAVYYCQQYQSWPLTFGQGTKVEIKRTVAAPSVFIFPPSDEQLKSGTASVVCLLNNFYPREAKVQWKVDNALQSGNSQESVTEQDSKDSTYSLSSTLTLSKADYEKHKVYACEVTHQGLSSPVTKSFNRGEC
heavy 2: EVQLVESGGGLVQPGGSLRLSCAASGFTFSDYYMTWVRQAPGKGLEWVAFIRNRARGYTSDHNASVKGRFTISRDNAKNSLYLQMNSLRAEDTAVYYCARDRPSYYVLDYWGQGTTVTVSSASTKGPSVFPLAPCSRSTSESTAALGCLVKDYFPEPVTVSWNSGALTSGVHTFPAVLQSSGLYSLSSVVTVPSSNFGTQTYTCNVDHKPSNTKVDKTVERKCRVRCPRCPAPPVAGPSVFLFPPKPKDTLMISRTPEVTCVVVAVSHEDPEVQFNWYVDGVEVHNAKTKPREEQFNSTFRVVSVLTVVHQDWLNGKEYKCKVSNKGLPSSIEKTISKTKGQPREPQVYTLPPSREEMTKNQVSLTCLVKGFYPSDISVEWESNGQPENNYKTTPPMLDSDGSFFLYSRLTVDKSRWQQGNVFSCSVMHEALHNHYTQKSLSLSPGK
light 2: not shown
Fold GSI Enhancement, RTCC assay, KMS11 target cells [2]: 48.3 fold
IC50, RTCC assay, KMS11 target cells, No GSI [2]: 0.097 nM
IC50, RTCC assay, KMS11 target cells, with GSI LY-450139 [2]: 0.002 nM
IC50, RTCC assay, KMS11 target cells, with GSI PF-3084014 [2]: 0.002 nM
IC50, RTCC assay, KMS11 target cells, with GSI PF-5212362 [2]: 0.002 nM

B5: Anti-BCMA J6M0 hIgG DLE CGW117 (MMAE) conjugate (antibody, V domains shown)
VH: QVQLVQSGAEVKKPGSSVKVSCKASGGTFSNYWMHWVRQAPGQGLEWMGATYRGHSDTYYNQKFKGRVTITADKSTSTAYMELSSLRSEDTAVYYCARGAIYDGYDVLDNWGQGTLVTVSS
VL: DIQMTQSPSSLSASVGDRVTITCSASQDISNYLNWYQQKPGKAPKLLIYYTSNLHSGVPSRFSGSGSGTDFTLTISSLQPEDFATYYCQQYRKLPWTFGQGTKLEIKR
modifications: drug conjugate CGW117 (MMAE); attachment site not stated
Fold GSI Enhancement, ADC killing assay, MM1S cells [2]: 17.4 fold
Fold GSI Enhancement, ADC killing assay, U266B1 cells [2]: 23.1 fold
IC50, ADC killing assay, MM1S cells, No GSI [2]: 19.4 nM
IC50, ADC killing assay, MM1S cells, with GSI LY-411575 [2]: 1.12 nM
IC50, ADC killing assay, U266B1 cells, No GSI [2]: 6.04 nM
IC50, ADC killing assay, U266B1 cells, with GSI LY-411575 [2]: 0.26 nM

B6: BCMA×CD3 bispecific antibody ER26 (bispecific antibody, human IgG1, kappa, N297A)
heavy: QVQLVQSGAEVKKPGSSVKVSCKASGGTFSNYWMHWVRQAPGQGLEWMGATYRGHSDTYYNQKFKGRVTITADKSTSTAYMELSSLRSEDTAVYYCARGAIYNGYDVLDNWGQGTLVTVSSASTKGPSVFPLAPSSKSTSGGTAALGCLVKDYFPEPVTVSWNSGALTSGVHTFPAVLQSSGLYSLSSVVTVPSSSLGTQTYICNVNHKPSNTKVDKRVEPKSCDKTHTCPPCPAPELLGGPSVFLFPPKPKDTLMISRTPEVTCVVVAVSHEDPEVKFNWYVDGVEVHNAKTKPREEQYNSTYRVVSVLTVLHQDWLNGKEYKCKVSNKALAAPIEKTISKAKGQPREPQVCTLPPSREEMTKNQVSLSCAVKGFYPSDIAVEWESNGQPENNYKTTPPVLDSDGSFFLVSKLTVDKSRWQQGNVFSCSVMHEALHNHYTQKSLSLSPGK
light: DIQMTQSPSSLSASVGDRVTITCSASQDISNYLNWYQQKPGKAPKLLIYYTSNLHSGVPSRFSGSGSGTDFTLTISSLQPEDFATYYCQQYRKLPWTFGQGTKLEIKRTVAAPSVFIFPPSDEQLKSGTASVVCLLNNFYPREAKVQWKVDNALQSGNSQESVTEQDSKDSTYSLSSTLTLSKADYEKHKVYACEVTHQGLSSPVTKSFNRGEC
chain: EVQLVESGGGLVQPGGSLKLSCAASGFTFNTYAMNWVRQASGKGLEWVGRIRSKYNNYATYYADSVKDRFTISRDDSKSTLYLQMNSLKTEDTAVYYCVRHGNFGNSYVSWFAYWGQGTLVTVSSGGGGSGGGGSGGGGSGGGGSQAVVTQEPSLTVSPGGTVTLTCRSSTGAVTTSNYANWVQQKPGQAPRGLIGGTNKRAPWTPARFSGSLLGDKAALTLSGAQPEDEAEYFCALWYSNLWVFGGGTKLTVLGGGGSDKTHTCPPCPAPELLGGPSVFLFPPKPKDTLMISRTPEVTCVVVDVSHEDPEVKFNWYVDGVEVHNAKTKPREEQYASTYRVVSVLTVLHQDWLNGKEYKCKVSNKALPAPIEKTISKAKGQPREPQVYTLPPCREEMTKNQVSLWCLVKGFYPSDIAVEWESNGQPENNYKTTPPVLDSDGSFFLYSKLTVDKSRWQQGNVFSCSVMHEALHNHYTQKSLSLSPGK
fold enhancement of RTCC EC50 upon GSI treatment [1]: > 100 fold
